# B1: Recombinant Factor H-Related Protein 4 (FHR-4), FHR-4B variant (natural protein, human, UniProt Q92496-3 20-331, looked up)
# chain: EVKPCDFPEIQHGGLYYKSLRRLYFPAAAGQSYSYYCDQNFVTPSGSYWDYIHCTQDGWSPTVPCLRTCSKSDIEIENGFISESSSIYILNKEIQYKCKPGYATADGNSSGSITCLQNGWSAQPICIKFCDMPVFENSRAKSNGMRFKLHDTLDYECYDGYEISYGNTTGSIVCGEDGWSHFPTCYNSSEKCGPPPPISNGDTTSFLLKVYVPQSRVEYQCQSYYELQGSNYVTCSNGEWSEPPRCIHPCIITEENMNKNNIQLKGKSDIKYYAKTGDTIEFMCKLGYNANTSVLSFQAVCREGIVEYPRCE
# B2: complement factor H (FH) (natural protein, human, UniProt P08603 19-1231, looked up)
# chain: EDCNELPPRRNTEILTGSWSDQTYPEGTQAIYKCRPGYRSLGNVIMVCRKGEWVALNPLRKCQKRPCGHPGDTPFGTFTLTGGNVFEYGVKAVYTCNEGYQLLGEINYRECDTDGWTNDIPICEVVKCLPVTAPENGKIVSSAMEPDREYHFGQAVRFVCNSGYKIEGDEEMHCSDDGFWSKEKPKCVEISCKSPDVINGSPISQKIIYKENERFQYKCNMGYEYSERGDAVCTESGWRPLPSCEEKSCDNPYIPNGDYSPLRIKHRTGDEITYQCRNGFYPATRGNTAKCTSTGWIPAPRCTLKPCDYPDIKHGGLYHENMRRPYFPVAVGKYYSYYCDEHFETPSGSYWDHIHCTQDGWSPAVPCLRKCYFPYLENGYNQNYGRKFVQGKSIDVACHPGYALPKAQTTVTCMENGWSPTPRCIRVKTCSKSSIDIENGFISESQYTYALKEKAKYQCKLGYVTADGETSGSITCGKDGWSAQPTCIKSCDIPVFMNARTKNDFTWFKLNDTLDYECHDGYESNTGSTTGSIVCGYNGWSDLPICYERECELPKIDVHLVPDRKKDQYKVGEVLKFSCKPGFTIVGPNSVQCYHFGLSPDLPICKEQVQSCGPPPELLNGNVKEKTKEEYGHSEVVEYYCNPRFLMKGPNKIQCVDGEWTTLPVCIVEESTCGDIPELEHGWAQLSSPPYYYGDSVEFNCSESFTMIGHRSITCIHGVWTQLPQCVAIDKLKKCKSSNLIILEEHLKNKKEFDHNSNIRYRCRGKEGWIHTVCINGRWDPEVNCSMAQIQLCPPPPQIPNSHNMTTTLNYRDGEKVSVLCQENYLIQEGEEITCKDGRWQSIPLCVEKIPCSQPPQIEHGTINSSRSSQESYAHGTKLSYTCEGGFRISEENETTCYMGKWSSPPQCEGLPCKSPPEISHGVVAHMSDSYQYGEEVTYKCFEGFGIDGPAIAKCLGEKWSHPPSCIKTDCLSLPSFENAIPMGEKKDVYKAGEQVTYTCATYYKMDGASNVTCINSRWTGRPTCRDTSCVNPPTVQNAYIVSRQMSKYPSGERVRYQCRSPYEMFGDEEVMCLNGNWTEPPQCKDSTGKCGPPPPIDNGDITSFPLSVYAPASSVEYQCQNLYQLEGNKRITCRNGQWSEPPKCLHPCVISREIMENYNIALRWTAKQKLYSRTGESVEFVCKRGYRLSSRSHTLRTTCWDGKLEYPTCAKR
# notes: complement factor H, commercially available purified protein; also called CFH; source: bought: Sigma-Aldrich, catalogue no; C5813 (purified)
# Assays:
# C3b [1] = target: T1, C3b (human, UniProt P01024 23-667; P01024 749-1663); assay: cell-based or functional assay
# C3b [2] = target: T1, C3b; assay: ELISA; solid-phase binding assay: C3b adsorbed on microtiter wells (1 ug per well); 100 nM FH or FHL-1 mixed with rising FHR-4 up to 500 nM, 4 h at room temperature in 20 mM HEPES, 130 mM NaCl, 0.05% Tween-20, pH 7.3; bound FH or FHL-1 detected with the OX23 antibody; conditions: both partners purified
# T1 sequence (P01024 23-667, chain 1 of 2): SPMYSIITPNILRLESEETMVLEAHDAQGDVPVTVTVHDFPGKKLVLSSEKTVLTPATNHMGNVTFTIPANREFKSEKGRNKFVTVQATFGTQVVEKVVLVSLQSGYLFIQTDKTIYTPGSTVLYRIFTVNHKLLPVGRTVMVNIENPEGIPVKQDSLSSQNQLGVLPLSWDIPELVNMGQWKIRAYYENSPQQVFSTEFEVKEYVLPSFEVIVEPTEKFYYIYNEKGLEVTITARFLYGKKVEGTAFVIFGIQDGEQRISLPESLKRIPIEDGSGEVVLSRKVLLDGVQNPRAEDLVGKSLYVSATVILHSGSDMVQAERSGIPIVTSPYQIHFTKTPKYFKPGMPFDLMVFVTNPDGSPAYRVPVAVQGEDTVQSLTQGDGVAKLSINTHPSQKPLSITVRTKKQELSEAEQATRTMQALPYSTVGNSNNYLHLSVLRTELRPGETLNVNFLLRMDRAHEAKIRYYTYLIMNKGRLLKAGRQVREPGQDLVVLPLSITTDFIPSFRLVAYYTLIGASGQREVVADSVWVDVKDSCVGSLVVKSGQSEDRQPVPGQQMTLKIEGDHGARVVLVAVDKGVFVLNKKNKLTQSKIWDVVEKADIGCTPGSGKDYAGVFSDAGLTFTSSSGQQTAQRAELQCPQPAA
# T1 sequence (P01024 749-1663, chain 2 of 2): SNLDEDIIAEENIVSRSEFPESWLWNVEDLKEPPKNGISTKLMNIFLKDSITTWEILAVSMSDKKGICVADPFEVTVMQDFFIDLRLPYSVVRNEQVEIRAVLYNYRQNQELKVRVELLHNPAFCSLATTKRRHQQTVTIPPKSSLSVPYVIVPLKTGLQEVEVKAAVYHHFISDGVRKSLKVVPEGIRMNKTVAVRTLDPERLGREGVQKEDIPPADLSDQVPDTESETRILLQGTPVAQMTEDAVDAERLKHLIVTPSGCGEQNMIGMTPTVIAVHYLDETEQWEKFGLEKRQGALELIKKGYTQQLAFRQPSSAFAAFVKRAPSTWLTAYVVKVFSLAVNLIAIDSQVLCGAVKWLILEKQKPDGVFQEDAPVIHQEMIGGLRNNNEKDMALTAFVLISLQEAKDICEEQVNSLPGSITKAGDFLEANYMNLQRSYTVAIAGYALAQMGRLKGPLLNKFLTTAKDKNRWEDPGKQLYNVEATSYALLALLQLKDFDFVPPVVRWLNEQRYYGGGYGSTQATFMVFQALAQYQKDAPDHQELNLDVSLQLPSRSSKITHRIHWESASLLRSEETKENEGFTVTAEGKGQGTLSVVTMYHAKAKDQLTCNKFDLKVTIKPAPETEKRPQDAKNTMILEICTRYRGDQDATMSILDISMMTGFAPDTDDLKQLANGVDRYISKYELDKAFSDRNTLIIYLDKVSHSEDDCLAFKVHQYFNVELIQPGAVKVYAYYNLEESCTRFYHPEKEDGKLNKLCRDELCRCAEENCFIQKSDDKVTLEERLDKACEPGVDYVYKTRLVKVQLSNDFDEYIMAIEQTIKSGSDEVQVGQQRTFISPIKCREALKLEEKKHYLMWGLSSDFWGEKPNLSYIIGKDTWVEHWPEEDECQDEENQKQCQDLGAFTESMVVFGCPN
"inhibition of FHL-1/FI-mediated C3b α-chain cleavage in the fluid phase (blocks FHL-1 with C3b); FHR-4 up to a 5-fold molar excess over FHL-1, dose-dependent (C3b [1])",binding result (C3b [2]),Binder
2.5 fold molar excess of FHR-4 over FHL-1 for 50% reduction,,B1
,binds,B2

# — paper PMC7005798, “Increased circulating levels of Factor H-Related Protein 4 are strongly associated with age-related macular degeneration” (Nature Communications, 2020)
